Experimental data published in US20190185561A1 (Seagen, published 2019).
Positions count from the first letter of the chain named. Names and notes keep the numbering of the source. Values belong to the molecule of their own block, whether it stands above or below them.

Tests used:
[1] = biological target: murine CD47 on murine CD47 positive tumor cells (mouse) (UniProt Q61735); assay: saturation binding by flow cytometry on HT-2 (mouse T cells); range printed beside the two rising curves (mIAP and Cleaved Vel), lower end
Sequence of murine CD47 on murine CD47 positive tumor cells (mouse) (Q61735 19-303): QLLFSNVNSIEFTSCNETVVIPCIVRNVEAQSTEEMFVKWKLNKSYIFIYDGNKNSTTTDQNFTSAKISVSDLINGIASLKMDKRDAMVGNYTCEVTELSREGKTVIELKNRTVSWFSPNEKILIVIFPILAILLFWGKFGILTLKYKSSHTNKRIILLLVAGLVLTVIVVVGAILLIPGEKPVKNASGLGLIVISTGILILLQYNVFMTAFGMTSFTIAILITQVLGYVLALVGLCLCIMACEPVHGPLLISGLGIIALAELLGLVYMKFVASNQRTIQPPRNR

[2] = biological target: murine CD47 on murine CD47 positive tumor cells (mouse) (UniProt Q61735); assay: saturation binding by flow cytometry on HT-2 (mouse T cells)
[3] = biological target: murine CD47 on murine CD47 positive tumor cells (mouse) (UniProt Q61735); assay: saturation binding by flow cytometry on HT-2 (mouse T cells); range printed beside the two rising curves (mIAP and Cleaved Vel), upper end
[4] = biological target: T1, human CD47 expressed on the cell surface (human, UniProt Q08722 19-323); assay: saturation binding, flow cytometry, HT1080 cells
T1 construct: whole, on cells; also called CD47 on SW780, human red blood cells, HT1080, HCT116, Raji, L450cy and patient blood cells

[5] = biological target: T1, human CD47 expressed on the cell surface; assay: saturation binding, flow cytometry, SW780 cells
[6] = biological target: T1, human CD47 expressed on the cell surface; assay: saturation binding, flow cytometry, Raji cells
[7] = biological target: T1, human CD47 expressed on the cell surface; assay: saturation binding, flow cytometry, HCT116 cells
[8] = biological target: T1, human CD47 expressed on the cell surface; assay: saturation binding, flow cytometry, HCT116 cells; HCT116 cells
[9] = biological target: T1, human CD47 expressed on the cell surface; assay: saturating cellular FACS on L450cy lymphoma cells
[10] = biological target: T2, Soluble recombinant human CD47-Fc (R&D Systems) (human, UniProt Q08722 19-139); assay: saturating ELISA on plates coated with human CD47; column head 'Average EC50 (nM)'
T2 construct: Bought reagent; also called rhCD47; human CD47 (plate-coated); not shown: Fc part of the bought fusion protein

[11] = biological target: T2, Soluble recombinant human CD47-Fc (R&D …); assay: hCD47 ELISA, absorbance at 450 nm against antibody concentration
[12] = biological target: T1, human CD47 expressed on the cell surface; assay: saturation binding, flow cytometry, SW780 cells; remark: listed apart in the source
[13] = biological target: T2, Soluble recombinant human CD47-Fc (R&D …); assay: saturation binding ELISA on rhCD47
[14] = biological target: T1, human CD47 expressed on the cell surface; assay: saturation binding, flow cytometry, SW780 cells; remark: listed apart in the source
[15] = biological target: T1, human CD47 expressed on the cell surface; assay: saturation binding, flow cytometry, SW780 cells; remark: listed apart in the source
[16] = biological target: T1, human CD47 expressed on the cell surface; assay: saturation binding, flow cytometry, human red blood cells
[17] = biological target: T1, human CD47 expressed on the cell surface; assay: as above; remark: listed apart in the source
[18] = biological target: T1, human CD47 expressed on the cell surface; assay: saturation binding, flow cytometry, SW780 cells; SW780 human bladder cancer cells

B3: hB6H12.4 (antibody, V domains shown)
VH: EVQLLESGGGLVQPGGSLRLSCAASGFTFSGYGMSWVRQAPGKRLEWVATITSGGTYTYYPDSVKGRFTISRDNSKNTLYLQMNSLRAEDTAIYFCARSLAGNAMDYWGQGTLVTVSS
VL: DIQMTQSPSSLSASVGDRVTLTCRASQTISNYLAWYQQKPGKVPKLLIKFASTLQSGVPSRFSGSGSGSDFTLTISSLQPEDVATYYCQNGHGFPRTFGQGTKLEIKR
notes: also called hvH1/hvK4; antibody 4 (bin A)
Kd [9]: 0.9 nM
EC50 [10]: 24 nM
EC50 (read off the curve) [11]: ~1 nM

B4: hB6H12.2 (antibody, V domains shown)
VH: B3 VH
VL: EIVMTQSPDFQSVTPKEKVTLTCRASQTISDYLHWYQQKPDQSPKLLIKFASQSISGVPSRFSGSGSGTDFTLTINSLEAEDAATYYCQNGHGFPRTFGQGTKLEIKR
notes: also called hvH1/hvK2; antibody 2 (bin A)
Kd [9]: 0.9 nM
EC50 [10]: 30 nM

B5: Cleaved Vel-IPV-hB6H12.4 (antibody, V domains shown)
VH: B3 VH
VL: B3 VL
notes: MMP2-cleaved; IgG1
Kd [12]: 9.2 nM

B6: Ab47 (antibody, V domains shown)
VH: B3 VH with L5V, R44G, S75A, T78S, I93V, F95Y
VL: EIVLTQSPATLSLSPGERATLSCRASQTISDYLHWYQQKPGQAPRLLIKFASQSISGIPARFSGSGSGTDFTLTISSLEPEDFAVYYCQNGHGFPRTFGQGTKVEIKR
notes: Humanized IgG1; also called alternatively humanized antibody Ab47; humanized IgG1 hB6H12 Ab47
Kd [13]: 1 nM
Kd [4]: 21 nM
Kd [5]: 9.6 nM
Kd [9]: 0.5 nM
Kd [6]: 3.3 nM
EC50 [10]: 16 nM
Kd [14]: 8 nM
EC50 (read off the curve) [11]: ~1 nM
Kd [15]: 6.8 nM
Kd [16]: 26.5 nM
Kd [7]: 7.8 nM
Kd [17]: 12.1 nM

B7: hB6H12.20 (antibody, V domains shown)
VH: B3 VH with L5V, R44G, P61A, M83I, I93V, F95Y
VL: B3 VL
notes: also called hvH5/hvK4; antibody 20 (bin B)
Kd [9]: 1.8 nM
EC50 [10]: 56 nM
EC50 (read off the curve) [11]: ~4 nM

B9: hB6H12.18 (antibody, V domains shown)
VH: B3 VH with L5V, R44G, P61A, M83I, I93V, F95Y
VL: B4 VL
notes: also called hvH5/hvK2; antibody 18 (bin B)
Kd [9]: 1.1 nM
EC50 [10]: 38 nM

B12: hB6H12.1 (antibody, V domains shown)
VH: B3 VH
VL: B4 VL with T85V
notes: also called hvH1/hvK1; antibody 1 (bin A)
Kd [9]: 0.9 nM
EC50 [10]: 30 nM

B16: mB6H12 (antibody, V domains shown)
VH: EVQLVESGGDLVKPGGSLKLSCAASGFTFSGYGMSWVRQTPDKRLEWVATITSGGTYTYYPDSVKGRFTISRDNAKNTLYLQIDSLKSEDTAIYFCARSLAGNAMDYWGQGTSVTVSS
VL: DIVMTQSPATLSVTPGDRVSLSCRASQTISDYLHWYQQKSHESPRLLIKFASQSISGIPSRFSGSGSGSDFTLSINSVEPEDVGVYYCQNGHGFPRTFGGGTKLEIKR
notes: Murine parental antibody; also called murine B6H12; mouse B6H12
Kd [9]: 1.2 nM
EC50 [10]: 37 nM

Other lines, results leading:

Kd [1]: > 7.5 nM
EC50 (read off the curve) [2]: 10 to 20 nM
Kd [3]: < 15 nM
Molecule: mIAP301 (antibody)

Kd [4]: 1180 nM
Kd [5]: 1680 nM
Kd [6]: 466 nM
Kd [7]: 1120 nM
B1: Ab47 bearing the A4B4 coiled coil masking domain (antibody)
VH: GKIAALKQKIAALKYKNAALKKKIAALKQGGGGGPLGVRGGGGSEVQLVESGGGLVQPGGSLRLSCAASGFTFSGYGMSWVRQAPGKGLEWVATITSGGTYTYYPDSVKGRFTISRDNAKNSLYLQMNSLRAEDTAVYYCARSLAGNAMDYWGQGTLVTVSS
VL: GEIAALEQEIAALEKENAALEWEIAALEQGGGGGPLGVRGGGGSEIVLTQSPATLSLSPGERATLSCRASQTISDYLHWYQQKPGQAPRLLIKFASQSISGIPARFSGSGSGTDFTLTISSLEPEDFAVYYCQNGHGFPRTFGQGTKVEIKR
notes: IgG1

Kd [8]: 1780 nM
B2: Ab47 bearing the A2B1 coiled coil masking domain (antibody)
VH: GASTSVDELQAEVDQLQDENYALKTKVAQLRKKVEKLSEGGGGGPLGVRGGGGSEVQLVESGGGLVQPGGSLRLSCAASGFTFSGYGMSWVRQAPGKGLEWVATITSGGTYTYYPDSVKGRFTISRDNAKNSLYLQMNSLRAEDTAVYYCARSLAGNAMDYWGQGTLVTVSS
VL: GASTTVAQLRERVKTLRAQNYELESEVQRLREQVAQLASGGGGGPLGVRGGGGSEIVLTQSPATLSLSPGERATLSCRASQTISDYLHWYQQKPGQAPRLLIKFASQSISGIPARFSGSGSGTDFTLTISSLEPEDFAVYYCQNGHGFPRTFGQGTKVEIKR
notes: IgG1

Kd [13]: 2.7 nM
Kd [18]: 62.3 nM
B8: hB6H12.3 G91A (antibody, V domains shown)
VH: B3 VH
VL: B4 VL with T69S, G91A
notes: IgG1; also called hB6H12.3 (deamidation mutant); hvH1/hvK3 G91A

Kd [12]: 26.6 nM
B10: Cleaved Vel-IPV-hB6H12.19 (antibody, V domains shown)
VH: B3 VH with L5V, R44G, P61A, M83I, I93V, F95Y
VL: B4 VL with T69S
notes: MMP2-cleaved; IgG1

Kd [9]: 1 nM
EC50 [10]: 43 nM
B11: hB6H12.17 (antibody, V domains shown)
VH: B3 VH with L5V, R44G, P61A, M83I, I93V, F95Y
VL: B4 VL with T85V
notes: also called hvH5/hvK1; antibody 17 (bin B)

Kd [15]: 19.8 nM
Kd [17]: 100 nM
B13: Ab47 G91A (antibody, name in Kabat numbering, V domains shown)
VH: B3 VH with L5V, R44G, S75A, T78S, I93V, F95Y
VL: B6 VL with G91A
notes: built from the Ab47 light chain variable region with G91A; IgG1; also called Ab47 variant bearing a G91A mutation in LCDR3

Kd [9]: 1.3 nM
EC50 [10]: 55 nM
EC50 (read off the curve) [11]: ~3 nM
B14: hB6H12.19 (antibody, V domains shown)
VH: B3 VH with L5V, R44G, P61A, M83I, I93V, F95Y
VL: B4 VL with T69S
notes: also called hvH5/hvK3; antibody 19 (bin B)

Kd [12]: 30.2 nM
B15: Cleaved Vel-IPV-hB6H12.20 (antibody, V domains shown)
VH: B3 VH with L5V, R44G, P61A, M83I, I93V, F95Y
VL: B3 VL
notes: MMP2-cleaved; IgG1
